The values that follow come from patent US20260250338A1.

For test [1], the target named is full length human CD16b stably expressed on transduced WT Jurkat cells (human) (UniProt O75015). In words: flow cytometry on CD16b-transduced WT Jurkat cells stained with anti-CD16 (axis printed VL1-A :: CD16-eFluor 450-A). (In general: In flow cytometry, cells or beads pass a laser one at a time.)
For test [2], the target named is HER2 on HT29 cells (human) (UniProt P04626). The test is described as follows: flow cytometry on HT29 cells, anti-HER2 PerCP/Cy5.5 at 1:20.
For test [3], the target named is HER2 on SKOV3 cells (human) (UniProt P04626). The test is described as follows: flow cytometry on SKOV3 cells, anti-HER2 PerCP/Cy5.5 at 1:20.
The target in test [4] is HER2 on MDA-MB-231 cells (human) (UniProt P04626). In words: flow cytometry on MDA-MB-231 cells, anti-HER2 PerCP/Cy5.5 at 1:20.
In test [5] the target is HER2 on MDA-MB-175 cells (human) (UniProt P04626). In words: flow cytometry on MDA-MB-175 cells, anti-HER2 PerCP/Cy5.5 at 1:20.
Test [6] has as its target HER2 on JIMT-1 cells (human) (UniProt P04626). The test is described as follows: flow cytometry on JIMT-1 cells, anti-HER2 PerCP/Cy5.5 at 1:20.
Test [7] concerns the target HER2 on MDA-MB-175 cells (human) (UniProt P04626). In words: flow cytometry on MDA-MB-175 cells, isotype ctrl PerCP/Cy5.5.
For test [8], the target named is HER2 on MDA-MB-231 cells (human) (UniProt P04626). The test is described as follows: flow cytometry on MDA-MB-231 cells, isotype ctrl PerCP/Cy5.5.
Test [9] concerns the target HER2 on HT29 cells (human) (UniProt P04626). In words: flow cytometry on HT29 cells, isotype ctrl PerCP/Cy5.5.
In test [10] the target is HER2 on JIMT-1 cells (human) (UniProt P04626). In words: flow cytometry on JIMT-1 cells, isotype ctrl PerCP/Cy5.5.
Test [11] concerns the target HER2 on SKOV3 cells (human) (UniProt P04626). The test is described as follows: flow cytometry on SKOV3 cells, isotype ctrl PerCP/Cy5.5.

Chain of full length human CD16b stably expressed on transduced WT Jurkat cells (human) (O75015 17-200): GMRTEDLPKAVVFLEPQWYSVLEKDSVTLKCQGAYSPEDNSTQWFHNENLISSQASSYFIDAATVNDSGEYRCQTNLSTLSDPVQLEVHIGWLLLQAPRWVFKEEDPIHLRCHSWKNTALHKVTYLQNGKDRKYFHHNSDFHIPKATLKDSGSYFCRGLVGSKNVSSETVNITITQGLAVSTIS

“CD16-BV421 (BV421 mouse anti-human CD16 clone 3G8, BD Biosciences) (antibody)” came in with a CD16 gate (percent of cells) in [1] of 100.

On to “HER2 (Anti-Her2 PerCP/Cy5.5, BioLegend #324416) (antibody)”, for which the Median : BL3-A was determined as 2230 in test [2]; 25400 in test [3]; 1240 in test [4]; 6860 in test [5]; 10300 in test [6].

Take “iso ctrl (Isotype ctrl PerCP/Cy5.5 antibody)”: the Median : BL3-A in test [7] came out at 331; in [8], 520; in test [9], 361; in test [10], 306; in test [11], 491.
